Target: mouse VASP (wild-type, full-length) (mouse, UniProt P70460 1-375)
Experiment: immunolabeling of protein-coated beads

Chain of mouse VASP (wild-type, full-length) (P70460 whole entry): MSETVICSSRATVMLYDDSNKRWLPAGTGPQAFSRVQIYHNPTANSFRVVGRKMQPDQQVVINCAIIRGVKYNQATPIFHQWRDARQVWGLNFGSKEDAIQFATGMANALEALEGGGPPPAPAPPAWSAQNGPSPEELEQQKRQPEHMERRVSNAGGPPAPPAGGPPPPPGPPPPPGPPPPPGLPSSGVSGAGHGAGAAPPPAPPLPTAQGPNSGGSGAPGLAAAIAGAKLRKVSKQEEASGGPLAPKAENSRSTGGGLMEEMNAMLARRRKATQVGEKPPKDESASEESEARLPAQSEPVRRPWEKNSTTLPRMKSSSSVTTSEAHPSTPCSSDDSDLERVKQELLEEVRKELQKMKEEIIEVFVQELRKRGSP

B1: PRD-VCA-WAVE (PRD-VCA domain of human WAVE-2, Lys195-Asp498) (domain or fragment, UniProt Q9Y6W5 195-498, looked up)
chain: KIKTRKEEWEKMKMGQEFVESKEKLGTSGYPPTLVYQNGSIGCVENVDASSYPPPPQSDSASSPSPSFSEDNLPPPPAEFSYPVDNQRGSGLAGPKRSSVVSPSHPPPAPPLGSPPGPKPGFAPPPAPPPPPPPMIGIPPPPPPVGFGSPGTPPPPSPPSFPPHPDFAAPPPPPPPPAADYPTLPPPPLSQPTGGAPPPPPPPPPPGPPPPPFTGADGQPAIPPPLSDTTKPKSSLPAVSDARSDLLSAIRQGFQLRRVEEQREQEKRDVVGNDVATILSRRIAVEYSDSEDDSSEFDEDDWSD
B1: binds.
